From publication doi:10.1101/2023.01.23.525122 (bioRxiv, 2023)

B1: NPM1-236A (natural protein, UniProt P06748 1-294, looked up)
chain: MAASMAMDMSPLRPQNYLFGCELKADKDYHFKVDNDENEHQLSLRTVSLGAGAKDELHIVEAEAMNYEGSPIKVTLATLKMSVQPTVSLGGFEITPPVVLRLKCGSGPVHISGQHLVAVEEDAESEDEEEEDVKLLSISGKRSAPGGGSKVPQKKVKLAADEDDDDDDEEDDDEDDDDDDFDDEEAEEKAPVKKSIRDTPAKNAQKSNQNGKDSKPSSTPRSKGQESFKKQEKTPKTPKGPSSVEDIKAKMQASIEKGGSLPKVEAKFINYVKNCFRMTDQEAIQDLWQWRKSL
B2: NPM1-234567A (natural protein, UniProt P06748 1-294, looked up)
chain: MAAAAAADMSPLRPQNYLFGCELKADKDYHFKVDNDENEHQLSLRTVSLGAGAKDELHIVEAEAMNYEGSPIKVTLATLKMSVQPTVSLGGFEITPPVVLRLKCGSGPVHISGQHLVAVEEDAESEDEEEEDVKLLSISGKRSAPGGGSKVPQKKVKLAADEDDDDDDEEDDDEDDDDDDFDDEEAEEKAPVKKSIRDTPAKNAQKSNQNGKDSKPSSTPRSKGQESFKKQEKTPKTPKGPSSVEDIKAKMQASIEKGGSLPKVEAKFINYVKNCFRMTDQEAIQDLWQWRKSL
B3: NPM1(1–140) (domain or fragment, UniProt P06748 1-140, looked up)
chain: MEDSMDMDMSPLRPQNYLFGCELKADKDYHFKVDNDENEHQLSLRTVSLGAGAKDELHIVEAEAMNYEGSPIKVTLATLKMSVQPTVSLGGFEITPPVVLRLKCGSGPVHISGQHLVAVEEDAESEDEEEEDVKLLSISG
B4: NPM1(1–150) (domain or fragment, UniProt P06748 1-150, looked up)
chain: MEDSMDMDMSPLRPQNYLFGCELKADKDYHFKVDNDENEHQLSLRTVSLGAGAKDELHIVEAEAMNYEGSPIKVTLATLKMSVQPTVSLGGFEITPPVVLRLKCGSGPVHISGQHLVAVEEDAESEDEEEEDVKLLSISGKRSAPGGGSK
B5: NPM1(1–160) (domain or fragment, UniProt P06748 1-160, looked up)
chain: MEDSMDMDMSPLRPQNYLFGCELKADKDYHFKVDNDENEHQLSLRTVSLGAGAKDELHIVEAEAMNYEGSPIKVTLATLKMSVQPTVSLGGFEITPPVVLRLKCGSGPVHISGQHLVAVEEDAESEDEEEEDVKLLSISGKRSAPGGGSKVPQKKVKLAA
B6: NPM1(1–130) (domain or fragment, UniProt P06748 1-130, looked up)
chain: MEDSMDMDMSPLRPQNYLFGCELKADKDYHFKVDNDENEHQLSLRTVSLGAGAKDELHIVEAEAMNYEGSPIKVTLATLKMSVQPTVSLGGFEITPPVVLRLKCGSGPVHISGQHLVAVEEDAESEDEEE
B7: NPM1(1–188) (domain or fragment, UniProt P06748 1-188, looked up)
chain: MEDSMDMDMSPLRPQNYLFGCELKADKDYHFKVDNDENEHQLSLRTVSLGAGAKDELHIVEAEAMNYEGSPIKVTLATLKMSVQPTVSLGGFEITPPVVLRLKCGSGPVHISGQHLVAVEEDAESEDEEEEDVKLLSISGKRSAPGGGSKVPQKKVKLAADEDDDDDDEEDDDEDDDDDDFDDEEAEE
B8: NPM1(1–117) (domain or fragment, UniProt P06748 1-117, looked up)
chain: MEDSMDMDMSPLRPQNYLFGCELKADKDYHFKVDNDENEHQLSLRTVSLGAGAKDELHIVEAEAMNYEGSPIKVTLATLKMSVQPTVSLGGFEITPPVVLRLKCGSGPVHISGQHLV
B9: NPM1(7–117) (domain or fragment, UniProt P06748 7-117, looked up)
chain: MDMSPLRPQNYLFGCELKADKDYHFKVDNDENEHQLSLRTVSLGAGAKDELHIVEAEAMNYEGSPIKVTLATLKMSVQPTVSLGGFEITPPVVLRLKCGSGPVHISGQHLV
B10: NPM1(7–117)-Y67H (domain or fragment, UniProt P06748 7-117, looked up)
chain: MDMSPLRPQNYLFGCELKADKDYHFKVDNDENEHQLSLRTVSLGAGAKDELHIVEAEAMNHEGSPIKVTLATLKMSVQPTVSLGGFEITPPVVLRLKCGSGPVHISGQHLV
B11: NPM1(7–117)-Y67F (domain or fragment, UniProt P06748 7-117, looked up)
chain: MDMSPLRPQNYLFGCELKADKDYHFKVDNDENEHQLSLRTVSLGAGAKDELHIVEAEAMNFEGSPIKVTLATLKMSVQPTVSLGGFEITPPVVLRLKCGSGPVHISGQHLV
B12: NPM1(7–117)-K32A (domain or fragment, UniProt P06748 7-117, looked up)
chain: MDMSPLRPQNYLFGCELKADKDYHFAVDNDENEHQLSLRTVSLGAGAKDELHIVEAEAMNYEGSPIKVTLATLKMSVQPTVSLGGFEITPPVVLRLKCGSGPVHISGQHLV
B13: NPM1-T4sD (natural protein, UniProt P06748 1-294, looked up)
chain: MEDSMDMDMSPLRPQNYLFGCELKADKDYHFKVDNDENEHQLSLRTVSLGAGAKDELHIVEAEAMNYEGSPIKVTLATLKMSVQPTVSLGGFEITPPVVLRLKCGSGPVHISGQHLVAVEEDAESEDEEEEDVKLLSISGKRSAPGGGSKVPQKKVKLAADEDDDDDDEEDDDEDDDDDDFDDEEAEEKAPVKKSIRDDPAKNAQKSNQNGKDSKPSSDPRSKGQESFKKQEKDPKDPKGPSSVEDIKAKMQASIEKGGSLPKVEAKFINYVKNCFRMTDQEAIQDLWQWRKSL

Target: the molecule itself
Test: SDS-resistant oligomer detection by SDS-PAGE

Binding result, binds:
B1
B2

Target: the molecule itself
Test: SDS-resistant oligomer detection by SDS-PAGE
Remark: another data set of the same source

Binding result, binds:
B3
B4
B5
B6
B7
B8

Target: the molecule itself
Test: SDS-resistant oligomer detection by SDS-PAGE
Remark: another data set of the same source

Binding result, binds:
B9
B10
B11
B12

Target: the molecule itself
Test: SDS-resistant oligomer detection by SDS-PAGE
Remark: another data set of the same source

Binding result, binds:
B13
